We go through 2 molecules from patent US20240043478A1.

Assay [1] concerns the target human polyclonal IgG (available from Japan Blood Products Organization) (human). The assay can be described thus: elution ratio at pH 4.0 relative to PN-621.
Assay [2] shares this target. The assay can be described thus: immobilised on agarose gel; IgG eluted at pH 4.0 as % of pH 4.0 + pH 2.8 eluates.
Assay [3] shares this target. The assay can be described thus: dynamic binding, 3 mg/mL IgG, 10% breakthrough, 5 min retention.

B1: PN-621 Variant, five sequences α8 and one sequence β8 (designed binder)
chain: ADNIFNREVQAAFYHILHLPNLTEEQRNAFIQSLRDDPSVVAEILAEARRLNDAQAPRADNIFNREVQAAFYHILHLPNLTEEQRNAFIQSLRDDPSVVAEILAEARRLNDAQAPRADNIFNREVQAAFYHILHLPNLTEEQRNAFIQSLRDDPSVVAEILAEARRLNDAQAPRADNIFNREVQAAFYHILHLPNLTEEQRNAFIQSLRDDPSVVAEILAEARRLNDAQAPRADNIFNREVQAAFYHILHLPNLTEEQRNAFIQSLRDDPSVVAEILAEARRLNDAQAPRADNIFNREVQAAFYHILHLPNLTEEQRNAFIQSLRDDPSKVKKILKEAKKLNKAQAPK
B1: the Elution Ratio, relative ratio with respect to PN-621 in assay [1] stood at 1.63. Moreover, in assay [2], the Elution Ratio (%) under Weakly Acidic Conditions was determined as 75.7%. For the same molecule, the Binding Amount of IgG in assay [3] is 66 mg/mL gel.

B2: PN-621 Variant, five sequences α10 and one sequence β10 (designed binder)
chain: ADNIFNEELQHAFYLILHLPNLTEEQRNAFIQSLRDDPSVVAEILAEARRLNDAQAPRADNIFNEELQHAFYLILHLPNLTEEQRNAFIQSLRDDPSVVAEILAEARRLNDAQAPRADNIFNEELQHAFYLILHLPNLTEEQRNAFIQSLRDDPSVVAEILAEARRLNDAQAPRADNIFNEELQHAFYLILHLPNLTEEQRNAFIQSLRDDPSVVAEILAEARRLNDAQAPRADNIFNEELQHAFYLILHLPNLTEEQRNAFIQSLRDDPSVVAEILAEARRLNDAQAPRADNIFNEELQHAFYLILHLPNLTEEQRNAFIQSLRDDPSKVKKILKEAKKLNKAQAPK
As to B2, the Elution Ratio, relative ratio with respect to PN-621 in assay [1] worked out at 1.79. The Elution Ratio (%) under Weakly Acidic Conditions in assay [2] was 82.9%. The Binding Amount of IgG in assay [3] was 69 mg/mL gel.
